Test results: IntAct's records for PubMed 18976803

B1: Protein LDB19 (Saccharomyces cerevisiae), Q12502 (parent)
chain: MAFSRLTSTHQSNHNGYSNSNKKGQSLPLTLSIDVESPPCVLYGSAMESSGAVLSGLFTVTVVDPYSSAEDKSLKNTESNVSTTSKSLKRKSTFGSALSSRLSSLSASTSNISPSTSSTSISHSPTPANLRIMAGYTKITITSVTLSLVQKIHFHKPFVPNISSMQTCMNCKTKITNMKSWEIQSNTQDLSVGSHSYPFSYLIPGSVPCSSSLGATAETQVKYELIAVVTYIDPHRNSFSSGHSTPRKEGSSSKKRLLQLAMPIAVTRSIPRGPDKNSLRVFPPTELTAAAVLPNVVYPKSTFPLEMKLDGVSSGDRRWRMRKLSWRIEETTRVKAHACPVHKHELRQLEEQVKIKESEKSKKPRSHIKRYGELGPQIRVAVNSLENMPSQRLPGEPGREQAPNSSGPASTGNVGLDDENPVNEDEEDQPGSEFIHPSDDALRQELLMQQQRARQQQLQQELKNNSSLFTEEVRIISKGEMKSGWKTDFDNNGKIELVTEIDCMGLNSGVSNPVMHASTLQTPSTGNKKPSINVACDIQDPNLGLYVSHILAVEIVVAEETLQYANGQPIRKPNSKNKKETNNNTMNVHNPDQRLAELSPIFANRNTPKVRRMGPEDITPVNSNKSNHSTNKEKASNGASNSNIVSVPTGAARVLRMQFRLTVTERSGLGISWDEEVPPIYQDVELLSPPCYELSINNGIKNKLYSTMSTPVRSEDDFVGGSDEDIGNYESQGLEPGPNVQEVTITQNKLTIPPTAHHYQPASSSQRSLTTVQSPPLESVVSVQGSVPFRGHVLTPHSTRDIRIQNFSDFLDSNRITQ

Variants of: B1
Details: with rsp5_yeast RSP5, P39940
Chain of rsp5_yeast RSP5, P39940 (P39940 whole entry): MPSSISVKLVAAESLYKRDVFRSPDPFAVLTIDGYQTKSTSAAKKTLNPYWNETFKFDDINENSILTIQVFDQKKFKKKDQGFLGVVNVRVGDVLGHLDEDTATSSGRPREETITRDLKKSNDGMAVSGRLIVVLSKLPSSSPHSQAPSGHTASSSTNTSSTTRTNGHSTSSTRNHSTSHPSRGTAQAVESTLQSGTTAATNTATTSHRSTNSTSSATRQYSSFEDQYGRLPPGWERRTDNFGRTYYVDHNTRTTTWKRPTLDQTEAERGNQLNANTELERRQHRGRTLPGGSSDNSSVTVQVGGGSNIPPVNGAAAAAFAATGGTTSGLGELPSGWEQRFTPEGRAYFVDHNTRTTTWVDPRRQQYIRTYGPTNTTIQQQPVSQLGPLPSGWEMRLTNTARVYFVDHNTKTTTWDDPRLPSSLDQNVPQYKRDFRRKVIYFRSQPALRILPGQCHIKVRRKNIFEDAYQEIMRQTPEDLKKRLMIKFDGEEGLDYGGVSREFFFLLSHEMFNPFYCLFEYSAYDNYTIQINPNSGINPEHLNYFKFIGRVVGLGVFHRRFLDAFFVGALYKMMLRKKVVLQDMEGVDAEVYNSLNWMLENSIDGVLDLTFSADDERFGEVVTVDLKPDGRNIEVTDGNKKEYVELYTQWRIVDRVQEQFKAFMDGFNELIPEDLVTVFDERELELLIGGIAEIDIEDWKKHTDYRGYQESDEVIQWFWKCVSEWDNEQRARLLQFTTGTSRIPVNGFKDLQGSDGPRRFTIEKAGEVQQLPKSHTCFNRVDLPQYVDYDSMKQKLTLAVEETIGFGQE

Row | Variant | effect of a mutation on the interaction
1 | P690A;Y692A | decreasing interaction
2 | P679A;Y681A | decreasing interaction
